Positions count from the first letter of the chain named.
Columns and labels:
sortilin A773W [1] = biological target: T1, sortilin A773W (human, UniProt Q99523 78-831, A773W); test: cell-based or functional assay
T1 sequence (looked up): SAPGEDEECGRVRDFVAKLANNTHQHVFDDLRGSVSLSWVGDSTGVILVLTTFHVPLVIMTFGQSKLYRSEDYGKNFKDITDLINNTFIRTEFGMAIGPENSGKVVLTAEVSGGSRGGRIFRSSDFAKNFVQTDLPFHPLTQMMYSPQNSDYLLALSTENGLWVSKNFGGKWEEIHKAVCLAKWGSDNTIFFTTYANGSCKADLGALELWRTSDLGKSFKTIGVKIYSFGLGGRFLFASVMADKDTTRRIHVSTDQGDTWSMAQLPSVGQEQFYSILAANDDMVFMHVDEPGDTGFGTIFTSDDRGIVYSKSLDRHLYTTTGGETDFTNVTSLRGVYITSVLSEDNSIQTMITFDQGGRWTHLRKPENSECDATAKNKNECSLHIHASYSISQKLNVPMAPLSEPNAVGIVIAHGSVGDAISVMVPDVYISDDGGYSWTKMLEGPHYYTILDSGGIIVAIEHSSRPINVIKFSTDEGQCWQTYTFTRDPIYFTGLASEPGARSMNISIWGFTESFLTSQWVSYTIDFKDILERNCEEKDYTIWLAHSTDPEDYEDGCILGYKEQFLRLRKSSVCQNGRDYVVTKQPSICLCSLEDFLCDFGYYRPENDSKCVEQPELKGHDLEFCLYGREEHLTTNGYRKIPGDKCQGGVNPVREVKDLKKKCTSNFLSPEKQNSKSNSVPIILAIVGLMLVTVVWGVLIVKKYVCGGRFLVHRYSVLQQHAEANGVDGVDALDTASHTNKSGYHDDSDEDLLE

sortilin T770W [2] = biological target: T2, sortilin T770W (human, UniProt Q99523 78-831, T770W); test: cell-based or functional assay
T2 sequence (looked up): T1 sequence (looked up) with T693W, W696A

sortilin A773W [3] = biological target: T1, sortilin A773W; test: co-IP; HEK293MSR cells overexpressing sortilin WT or TMD mutants along with NSG1; lysis in 5 mM CHAPS buffer; IP with rabbit anti-sortilin (control rabbit IgG), protein A-agarose, 4 °C; NSG1 normalized to precipitated sortilin, percent of WT; five independent experiments; conditions: partners not purified
sortilin Y781K = biological target: T3, sortilin Y781K (human, UniProt Q99523 78-831, Y781K); test: as above; conditions: partners not purified
T3 construct: signal peptide in the construct; propeptide too; Full-length human SORT1 with a mutation at the cytoplasmic border of the TMD; source: HEK293MSR, transfected, in lysate (5 mM CHAPS)
T3 sequence (looked up): T1 sequence (looked up) with W696A, Y704K

sortilin T770W [4] = biological target: T2, sortilin T770W; test: as above; conditions: partners not purified

B1: neuron-specific gene 1 (NSG1) (natural protein, human, UniProt P42857 1-185, looked up)
chain: MVKLGNNFAEKGTKQPLLEDGFDTIPLMTPLDVNQLQFPPPDKVVVKTKTEYEPDRKKGKARPPQIAEFTVSITEGVTERFKVSVLVLFALAFLTCVVFLVVYKVYKYDRACPDGFVLKNTQCIPEGLESYYAEQDSSAREKFYTVINHYNLAKQSITRSVSPWMSVLSEEKLSEQETEAAEKSA
notes: Human NSG1, subcloned from the pPR3 yeast two-hybrid library vector into pcDNA3; UniProt P42857 is printed for the modelling; no tag is named, detection with an anti-NSG1 antibody; source: HEK293MSR, transiently transfected, in lysate (5 mM CHAPS)
Question: What does the source list for B1?
Answer: sortilin ectodomain accumulated in conditioned media of HEK293MSR cells cotransfected with NSG1 (Western blot), percent of WT sortilin (sortilin A773W [1]): 46 % of WT sortilin; sortilin ectodomain accumulated in conditioned media of HEK293MSR cells cotransfected with NSG1 (Western blot), percent of WT sortilin (sortilin T770W [2]): 40 % of WT sortilin; NSG1 coimmunoprecipitated, normalized to immunoprecipitated sortilin, percent of WT sortilin (sortilin A773W [3]): 129%; NSG1 coimmunoprecipitated, normalized to immunoprecipitated sortilin, percent of WT sortilin (sortilin Y781K): 130%; NSG1 coimmunoprecipitated, normalized to immunoprecipitated sortilin, percent of WT sortilin (sortilin T770W [4]): 146%

Source: publication PMC12603737, “Transmembrane domain interactions underlie NSG1 regulation of sortilin ectodomain shedding” (The Journal of Biological Chemistry, 2025)
